Consider one molecule from patent US20050032189A1 (published 2005).

For the experiment, the target named is T1, Vitronectin receptor, αVβ3 integrin, localized on the HUVEC surface (human, UniProt P06756 31-1048; P05106 27-788).
T1 construct: whole, on cells; Present on bFGF-stimulated HUVEC in the cell adhesion assay; also called integrin αVβ3
Put plainly: HUVEC adhesion assay on Saxatilin- and Vitronectin-coated plates.

T1 sequence (P06756 31-1048, chain 1 of 2): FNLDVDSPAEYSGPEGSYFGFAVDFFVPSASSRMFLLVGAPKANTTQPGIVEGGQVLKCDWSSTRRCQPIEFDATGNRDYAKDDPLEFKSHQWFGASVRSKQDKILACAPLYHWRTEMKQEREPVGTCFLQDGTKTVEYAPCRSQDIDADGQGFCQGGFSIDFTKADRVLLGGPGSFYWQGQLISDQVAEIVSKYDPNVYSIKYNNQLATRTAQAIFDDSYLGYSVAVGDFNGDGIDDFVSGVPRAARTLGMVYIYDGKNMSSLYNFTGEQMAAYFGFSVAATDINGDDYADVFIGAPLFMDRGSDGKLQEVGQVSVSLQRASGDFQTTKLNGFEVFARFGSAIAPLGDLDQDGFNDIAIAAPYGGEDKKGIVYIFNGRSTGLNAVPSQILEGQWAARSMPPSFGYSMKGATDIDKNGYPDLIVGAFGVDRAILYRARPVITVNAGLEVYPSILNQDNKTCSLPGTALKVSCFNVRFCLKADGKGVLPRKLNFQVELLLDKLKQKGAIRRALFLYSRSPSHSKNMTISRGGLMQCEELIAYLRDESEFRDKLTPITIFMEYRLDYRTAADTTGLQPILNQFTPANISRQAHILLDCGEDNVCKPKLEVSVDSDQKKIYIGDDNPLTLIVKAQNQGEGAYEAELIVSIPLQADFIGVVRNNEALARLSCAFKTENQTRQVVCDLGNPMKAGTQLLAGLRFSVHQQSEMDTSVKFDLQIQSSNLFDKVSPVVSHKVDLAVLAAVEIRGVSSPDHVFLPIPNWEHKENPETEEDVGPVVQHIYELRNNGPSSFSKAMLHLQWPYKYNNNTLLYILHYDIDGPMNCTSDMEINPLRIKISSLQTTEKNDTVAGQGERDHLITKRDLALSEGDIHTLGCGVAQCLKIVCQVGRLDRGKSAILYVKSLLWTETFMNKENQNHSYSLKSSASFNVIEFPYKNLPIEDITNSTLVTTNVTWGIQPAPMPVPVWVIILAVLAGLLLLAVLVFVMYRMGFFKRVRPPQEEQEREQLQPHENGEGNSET
T1 sequence (P05106 27-788, chain 2 of 2): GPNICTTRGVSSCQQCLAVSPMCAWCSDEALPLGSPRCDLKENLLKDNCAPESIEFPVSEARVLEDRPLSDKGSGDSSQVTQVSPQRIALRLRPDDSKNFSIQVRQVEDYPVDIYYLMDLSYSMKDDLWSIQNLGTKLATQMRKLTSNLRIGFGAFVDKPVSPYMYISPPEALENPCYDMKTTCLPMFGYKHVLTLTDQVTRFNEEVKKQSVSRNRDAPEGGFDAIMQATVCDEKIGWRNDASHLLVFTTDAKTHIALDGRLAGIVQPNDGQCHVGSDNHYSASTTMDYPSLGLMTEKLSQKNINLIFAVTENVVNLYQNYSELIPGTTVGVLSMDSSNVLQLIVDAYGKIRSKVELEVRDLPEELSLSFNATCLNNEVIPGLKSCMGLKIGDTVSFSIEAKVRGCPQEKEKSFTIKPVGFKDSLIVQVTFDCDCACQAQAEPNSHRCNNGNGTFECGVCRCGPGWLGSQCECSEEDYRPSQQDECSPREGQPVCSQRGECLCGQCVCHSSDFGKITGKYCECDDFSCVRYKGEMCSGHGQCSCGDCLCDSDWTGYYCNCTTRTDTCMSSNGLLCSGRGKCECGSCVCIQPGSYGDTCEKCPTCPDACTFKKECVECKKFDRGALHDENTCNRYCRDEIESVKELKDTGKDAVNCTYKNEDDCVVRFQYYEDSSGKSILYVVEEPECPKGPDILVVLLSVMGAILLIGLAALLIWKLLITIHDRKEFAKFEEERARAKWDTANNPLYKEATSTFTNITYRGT

B1: recombinant Saxatilin (ligand)
chain: EAGEECDCGAPANPCCDAATCKLRPGAQCAEGLCCDQCRFMKEGTICRMARGDDMDDYCNGISAGCPRNPFHA
Turning to B1, the binding result was “binds”.
